Laboratory results taken from patent US20140087995A1 (published 2014).
Numbered stars: 1 amine (or outer) side, 2 acyl side, 3 side chain; on linkers, the order of the positions; unused ones are H or OH. Bridge positions count the residues as written; N and C are the ends. Side chains are listed from the residue outwards. Ends that are not written are not given here. * marks the point of attachment. C20 diacid = O=C(O)CCCCCCCCCCCCCCCCCCC(=O)*; γGlu = O=C(O)[C@H](CCC(=O)[*:2])N[*:1]

Experiments:
rat calcitonin receptor [1] = molecular target: T1, rat calcitonin receptor (rat, UniProt P32214 25-516); test: SPA competition with 125I-calcitonin, membranes of BHK cells with rat calcitonin receptor (Assay VIII)
T1 construct: whole, on cells; Membranes of transiently transfected BHK tk'ts 13 cells (Assay VIII); also called rCTR
T1 sequence (looked up): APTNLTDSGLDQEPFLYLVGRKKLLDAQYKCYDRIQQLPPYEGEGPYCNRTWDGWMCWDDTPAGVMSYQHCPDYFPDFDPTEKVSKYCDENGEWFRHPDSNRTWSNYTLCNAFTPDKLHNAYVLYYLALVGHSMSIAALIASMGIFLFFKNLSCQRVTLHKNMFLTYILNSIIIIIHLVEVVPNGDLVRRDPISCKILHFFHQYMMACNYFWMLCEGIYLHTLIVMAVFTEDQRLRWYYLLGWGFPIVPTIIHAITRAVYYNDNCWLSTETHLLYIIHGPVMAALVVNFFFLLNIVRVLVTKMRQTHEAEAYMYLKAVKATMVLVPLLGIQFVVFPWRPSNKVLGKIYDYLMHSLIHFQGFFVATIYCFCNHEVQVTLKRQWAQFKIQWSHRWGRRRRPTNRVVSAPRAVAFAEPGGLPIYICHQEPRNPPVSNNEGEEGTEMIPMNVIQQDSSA

[2] = molecular target: T2, rat amylin receptor (rat calcitonin receptor + rat RAMP 3) (rat, UniProt P32214 25-516; Q9JJ73 23-147); test: SPA competition with 125I-rat amylin, membranes of BHK cells with rat calcitonin receptor + rat RAMP3 (Assay VI)
T2 construct: whole, on cells; Membranes of transiently transfected BHK tk'ts 13 cells (Assay VI); also called rAmylin-R; rat amylin 3(a) receptor
T2 sequence (looked up) 1: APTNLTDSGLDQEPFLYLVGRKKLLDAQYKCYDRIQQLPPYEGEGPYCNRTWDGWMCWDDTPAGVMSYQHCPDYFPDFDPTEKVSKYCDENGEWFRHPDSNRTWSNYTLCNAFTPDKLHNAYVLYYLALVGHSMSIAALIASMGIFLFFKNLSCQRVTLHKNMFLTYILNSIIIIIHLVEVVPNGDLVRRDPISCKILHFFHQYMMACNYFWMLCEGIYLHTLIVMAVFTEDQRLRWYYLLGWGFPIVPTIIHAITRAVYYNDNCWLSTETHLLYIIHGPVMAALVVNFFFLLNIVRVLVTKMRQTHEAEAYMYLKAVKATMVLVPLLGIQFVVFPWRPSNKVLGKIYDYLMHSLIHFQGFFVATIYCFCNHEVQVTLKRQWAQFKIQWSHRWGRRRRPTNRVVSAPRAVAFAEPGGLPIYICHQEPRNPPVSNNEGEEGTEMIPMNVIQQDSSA
T2 sequence (looked up) 2: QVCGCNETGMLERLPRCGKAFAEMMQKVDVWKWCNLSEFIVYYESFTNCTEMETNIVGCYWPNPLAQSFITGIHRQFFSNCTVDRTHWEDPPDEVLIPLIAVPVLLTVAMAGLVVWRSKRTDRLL

rat calcitonin receptor [3] = molecular target: T1, rat calcitonin receptor; test: ratio IC50 rat calcitonin receptor / IC50 rat amylin receptor (reference)
[4] = molecular target: T3, human calcitonin receptor (human, UniProt P30988 25-474); test: ratio IC50 human calcitonin receptor / IC50 human amylin receptor (reference)
T3 construct: whole, on cells; Membranes of a stably transfected BHK cell line (Assay VII); also called hCTR; hCT
T3 sequence (looked up): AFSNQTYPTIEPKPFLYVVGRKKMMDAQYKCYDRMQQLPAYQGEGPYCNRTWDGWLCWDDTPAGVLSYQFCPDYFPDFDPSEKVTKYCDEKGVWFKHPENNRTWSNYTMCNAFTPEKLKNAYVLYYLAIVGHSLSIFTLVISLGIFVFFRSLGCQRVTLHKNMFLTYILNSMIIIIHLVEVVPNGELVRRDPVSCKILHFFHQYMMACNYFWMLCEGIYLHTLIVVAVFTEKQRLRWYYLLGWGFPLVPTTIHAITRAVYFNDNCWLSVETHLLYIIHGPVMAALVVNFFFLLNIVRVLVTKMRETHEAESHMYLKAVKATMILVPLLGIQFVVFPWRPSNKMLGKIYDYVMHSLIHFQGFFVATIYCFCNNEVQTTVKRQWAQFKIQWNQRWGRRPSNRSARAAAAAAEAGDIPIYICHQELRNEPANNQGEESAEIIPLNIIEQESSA
Method in brief: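 Competition binding by SPA uses membrane preparations (35 ng/μL final) in pH 7.4 Hepes buffer with 1 mM CaCl2 and 5 mM MgCl₂. Incubation lasts 120 min at 25° C, and IC₅₀ comes from one-site fitting.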

| Binder | IC50 (rat calcitonin receptor [1]) | IC50 [2] | Ratio rCT/rAmylin binding (rat calcitonin receptor [3]) | Ratio hCT/hAmylin binding [4] |
| --- | --- | --- | --- | --- |
| K([γGlu-C20 diacid])CNTATCATQRLAAFLRHSSPNFGAIPSSTNVGPNTY-NH2 (disulfide 2-7; N-terminus assumed; SMILES CC[C@H](C)[C@H](NC(=O)[C@H](C)NC(=O)CNC(=O)[C@H](Cc1ccccc1)NC(=O)[C@H](CC(N)=O)NC(=O)[C@@H]1CCCN1C(=O)[C@H](CO)NC(=O)[C@H](CO)NC(=O)[C@H](Cc1c[nH]cn1)NC(=O)[C@H](CCCNC(=N)N)NC(=O)[C@H](CC(C)C)NC(=O)[C@H](Cc1ccccc1)NC(=O)[C@H](C)NC(=O)[C@H](C)NC(=O)[C@H](CC(C)C)NC(=O)[C@H](CCCNC(=N)N)NC(=O)[C@H](CCC(N)=O)NC(=O)[C@@H](NC(=O)[C@H](C)NC(=O)[C@@H]1CSSC[C@H](NC(=O)[C@@H](N)CCCCNC(=O)CC[C@H](NC(=O)CCCCCCCCCCCCCCCCCCC(=O)O)C(=O)O)C(=O)N[C@@H](CC(N)=O)C(=O)N[C@@H]([C@@H](C)O)C(=O)N[C@@H](C)C(=O)N[C@@H]([C@@H](C)O)C(=O)N1)[C@@H](C)O)C(=O)N1CCC[C@H]1C(=O)N[C@@H](CO)C(=O)N[C@@H](CO)C(=O)N[C@H](C(=O)N[C@@H](CC(N)=O)C(=O)N[C@H](C(=O)NCC(=O)N1CCC[C@H]1C(=O)N[C@@H](CC(N)=O)C(=O)N[C@H](C(=O)N[C@@H](Cc1ccc(O)cc1)C(N)=O)[C@@H](C)O)C(C)C)[C@@H](C)O, also called compound 94) | 111 nM | 0.397 nM | 280 | 46.3 |
| K([γGlu-C20 diacid])CNTATCATQRLARFLRHSSPNFGAIPSSTNVGSNTY-NH2 (disulfide 2-7; N-terminus assumed; SMILES CC[C@H](C)[C@H](NC(=O)[C@H](C)NC(=O)CNC(=O)[C@H](Cc1ccccc1)NC(=O)[C@H](CC(N)=O)NC(=O)[C@@H]1CCCN1C(=O)[C@H](CO)NC(=O)[C@H](CO)NC(=O)[C@H](Cc1c[nH]cn1)NC(=O)[C@H](CCCNC(=N)N)NC(=O)[C@H](CC(C)C)NC(=O)[C@H](Cc1ccccc1)NC(=O)[C@H](CCCNC(=N)N)NC(=O)[C@H](C)NC(=O)[C@H](CC(C)C)NC(=O)[C@H](CCCNC(=N)N)NC(=O)[C@H](CCC(N)=O)NC(=O)[C@@H](NC(=O)[C@H](C)NC(=O)[C@@H]1CSSC[C@H](NC(=O)[C@@H](N)CCCCNC(=O)CC[C@H](NC(=O)CCCCCCCCCCCCCCCCCCC(=O)O)C(=O)O)C(=O)N[C@@H](CC(N)=O)C(=O)N[C@@H]([C@@H](C)O)C(=O)N[C@@H](C)C(=O)N[C@@H]([C@@H](C)O)C(=O)N1)[C@@H](C)O)C(=O)N1CCC[C@H]1C(=O)N[C@@H](CO)C(=O)N[C@@H](CO)C(=O)N[C@H](C(=O)N[C@@H](CC(N)=O)C(=O)N[C@H](C(=O)NCC(=O)N[C@@H](CO)C(=O)N[C@@H](CC(N)=O)C(=O)N[C@H](C(=O)N[C@@H](Cc1ccc(O)cc1)C(N)=O)[C@@H](C)O)C(C)C)[C@@H](C)O, also called compound 83) [N^ε1-[(4S)-4-carboxy-4-(19-carboxynonadecanoylamino)butanoyl]-[Arg14,Arg17,Pro21,Pro27]-h-amylin] | 140 nM | 2.83 nM | 49.7 | 146 |
| K([γGlu-C20 diacid])CNTATCATQRLAEFLRHSSPNFGAIPSSTNVGRETY-NH2 (disulfide 2-7; N-terminus assumed; SMILES CC[C@H](C)[C@H](NC(=O)[C@H](C)NC(=O)CNC(=O)[C@H](Cc1ccccc1)NC(=O)[C@H](CC(N)=O)NC(=O)[C@@H]1CCCN1C(=O)[C@H](CO)NC(=O)[C@H](CO)NC(=O)[C@H](Cc1c[nH]cn1)NC(=O)[C@H](CCCNC(=N)N)NC(=O)[C@H](CC(C)C)NC(=O)[C@H](Cc1ccccc1)NC(=O)[C@H](CCC(=O)O)NC(=O)[C@H](C)NC(=O)[C@H](CC(C)C)NC(=O)[C@H](CCCNC(=N)N)NC(=O)[C@H](CCC(N)=O)NC(=O)[C@@H](NC(=O)[C@H](C)NC(=O)[C@@H]1CSSC[C@H](NC(=O)[C@@H](N)CCCCNC(=O)CC[C@H](NC(=O)CCCCCCCCCCCCCCCCCCC(=O)O)C(=O)O)C(=O)N[C@@H](CC(N)=O)C(=O)N[C@@H]([C@@H](C)O)C(=O)N[C@@H](C)C(=O)N[C@@H]([C@@H](C)O)C(=O)N1)[C@@H](C)O)C(=O)N1CCC[C@H]1C(=O)N[C@@H](CO)C(=O)N[C@@H](CO)C(=O)N[C@H](C(=O)N[C@@H](CC(N)=O)C(=O)N[C@H](C(=O)NCC(=O)N[C@@H](CCCNC(=N)N)C(=O)N[C@@H](CCC(=O)O)C(=O)N[C@H](C(=O)N[C@@H](Cc1ccc(O)cc1)C(N)=O)[C@@H](C)O)C(C)C)[C@@H](C)O) | 86.1 nM | 1.06 nM | 81.1 | 28.5 |
| K([γGlu-C20 diacid])CNTATCATQRLAEFLRHSSPNFGAIPSSTNVGPRTY-NH2 (disulfide 2-7; N-terminus assumed; SMILES CC[C@H](C)[C@H](NC(=O)[C@H](C)NC(=O)CNC(=O)[C@H](Cc1ccccc1)NC(=O)[C@H](CC(N)=O)NC(=O)[C@@H]1CCCN1C(=O)[C@H](CO)NC(=O)[C@H](CO)NC(=O)[C@H](Cc1c[nH]cn1)NC(=O)[C@H](CCCNC(=N)N)NC(=O)[C@H](CC(C)C)NC(=O)[C@H](Cc1ccccc1)NC(=O)[C@H](CCC(=O)O)NC(=O)[C@H](C)NC(=O)[C@H](CC(C)C)NC(=O)[C@H](CCCNC(=N)N)NC(=O)[C@H](CCC(N)=O)NC(=O)[C@@H](NC(=O)[C@H](C)NC(=O)[C@@H]1CSSC[C@H](NC(=O)[C@@H](N)CCCCNC(=O)CC[C@H](NC(=O)CCCCCCCCCCCCCCCCCCC(=O)O)C(=O)O)C(=O)N[C@@H](CC(N)=O)C(=O)N[C@@H]([C@@H](C)O)C(=O)N[C@@H](C)C(=O)N[C@@H]([C@@H](C)O)C(=O)N1)[C@@H](C)O)C(=O)N1CCC[C@H]1C(=O)N[C@@H](CO)C(=O)N[C@@H](CO)C(=O)N[C@H](C(=O)N[C@@H](CC(N)=O)C(=O)N[C@H](C(=O)NCC(=O)N1CCC[C@H]1C(=O)N[C@@H](CCCNC(=N)N)C(=O)N[C@H](C(=O)N[C@@H](Cc1ccc(O)cc1)C(N)=O)[C@@H](C)O)C(C)C)[C@@H](C)O) | 15.4 nM | 0.339 nM | 45.5 | 38.6 |
| K([γGlu-C20 diacid])CNTATCATQRLAEFLRHSSPNFGAIPSSTNVGHETY-NH2 (disulfide 2-7; N-terminus assumed; SMILES CC[C@H](C)[C@H](NC(=O)[C@H](C)NC(=O)CNC(=O)[C@H](Cc1ccccc1)NC(=O)[C@H](CC(N)=O)NC(=O)[C@@H]1CCCN1C(=O)[C@H](CO)NC(=O)[C@H](CO)NC(=O)[C@H](Cc1c[nH]cn1)NC(=O)[C@H](CCCNC(=N)N)NC(=O)[C@H](CC(C)C)NC(=O)[C@H](Cc1ccccc1)NC(=O)[C@H](CCC(=O)O)NC(=O)[C@H](C)NC(=O)[C@H](CC(C)C)NC(=O)[C@H](CCCNC(=N)N)NC(=O)[C@H](CCC(N)=O)NC(=O)[C@@H](NC(=O)[C@H](C)NC(=O)[C@@H]1CSSC[C@H](NC(=O)[C@@H](N)CCCCNC(=O)CC[C@H](NC(=O)CCCCCCCCCCCCCCCCCCC(=O)O)C(=O)O)C(=O)N[C@@H](CC(N)=O)C(=O)N[C@@H]([C@@H](C)O)C(=O)N[C@@H](C)C(=O)N[C@@H]([C@@H](C)O)C(=O)N1)[C@@H](C)O)C(=O)N1CCC[C@H]1C(=O)N[C@@H](CO)C(=O)N[C@@H](CO)C(=O)N[C@H](C(=O)N[C@@H](CC(N)=O)C(=O)N[C@H](C(=O)NCC(=O)N[C@@H](Cc1c[nH]cn1)C(=O)N[C@@H](CCC(=O)O)C(=O)N[C@H](C(=O)N[C@@H](Cc1ccc(O)cc1)C(N)=O)[C@@H](C)O)C(C)C)[C@@H](C)O, also called compound 107) | 33.1 nM | 0.958 nM | 34.6 | 11.1 |
